The values that follow come from US20250084173A1 (4B TECHNOLOGIES SUZHOU, published 2025).

The target of assay [1] is T1, recombinant human TrkA ECD protein (human, UniProt P04629 33-423).
T1 construct: extracellular domain; also called hTrkA-ECD-hFc; hTrkA; not shown: C-terminal human Fc tag (hFc)
In words: ELISA on recombinant TrkA ECD proteins (FIG. 1b). On the technique in general: An ELISA detects its analyte on a solid surface through an enzyme-linked reagent.

The target in assay [2] is T2, recombinant mouse TrkA ECD protein (mouse, UniProt Q3UFB7 34-420).
T2 construct: extracellular domain; also called mTrkA-ECD-hFc; murine TrkA; not shown: C-terminal human Fc tag (hFc)
Put plainly: ELISA on recombinant TrkA ECD proteins (FIG. 1b).

T1 sequence (P04629 33-423): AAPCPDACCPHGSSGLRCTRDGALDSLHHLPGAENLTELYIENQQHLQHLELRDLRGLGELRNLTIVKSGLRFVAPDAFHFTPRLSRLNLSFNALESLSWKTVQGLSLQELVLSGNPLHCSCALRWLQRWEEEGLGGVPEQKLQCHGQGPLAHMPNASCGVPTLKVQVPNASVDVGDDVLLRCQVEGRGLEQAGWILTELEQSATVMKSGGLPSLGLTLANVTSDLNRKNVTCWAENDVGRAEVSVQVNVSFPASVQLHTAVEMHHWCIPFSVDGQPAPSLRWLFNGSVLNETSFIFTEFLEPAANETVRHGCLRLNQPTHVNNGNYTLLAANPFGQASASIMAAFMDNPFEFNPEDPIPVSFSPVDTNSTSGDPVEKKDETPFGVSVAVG
T2 sequence (Q3UFB7 34-420): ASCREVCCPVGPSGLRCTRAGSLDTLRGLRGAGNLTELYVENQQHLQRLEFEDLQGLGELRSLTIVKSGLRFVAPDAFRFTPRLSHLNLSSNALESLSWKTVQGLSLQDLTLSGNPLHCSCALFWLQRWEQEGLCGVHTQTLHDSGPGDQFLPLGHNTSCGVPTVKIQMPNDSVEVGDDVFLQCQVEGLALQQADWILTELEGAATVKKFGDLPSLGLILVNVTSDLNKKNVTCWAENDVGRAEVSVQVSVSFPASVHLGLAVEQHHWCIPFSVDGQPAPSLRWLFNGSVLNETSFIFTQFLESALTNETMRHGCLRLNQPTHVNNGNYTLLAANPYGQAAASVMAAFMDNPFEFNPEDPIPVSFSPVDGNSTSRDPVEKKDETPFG

B1: 27A6 (antibody, mouse IgG1, V domains shown)
VH: QVQLQQSGAELMEPGASVKISCKATGYTFSRYWIEWVQQRPGHGLEWIGEILPGSGTTNYNENFRGKATFTADTSSNTVYMQLISLTSEDSAVYYCARSYYGDFDAYWGQGTLVTVSA
VL: QAVVTQESALTTSPGETVTLTCRSSIGAVTTSNHANWVQEKPDHLFTGLIGGTNNRAPGVPARFSGSLIGDKAVLTITGAQTEDEAIYFCALWYSNHWVFGGGTKLTVLG
notes: also called TrkA antibody; TrkA antibody of the present application
B1: the binding result in assay [1] and in assay [2] was “binds” in each case.
